Assay results: US20140256820A1, “THERAPEUTIC AGENT FOR BLOOD-BRAIN BARRIER DISRUPTION SYNDROME” (FUKUOKA UNIVERSITY, priority 2010, published 2014)

Test system: rat brain endothelial cells: RBECs
Assay type: cell-based
Experimental: Thus, a “t-PA-induced BBB dysfunction model” was prepared by the loading of ischemia and t-PA onto an in vitro BBB model. […] The resulting sample was left for 48 hours under 95% N2/5% CO2 (ischemia) conditions. Then, the permeability test was conducted.

## t-PA: tissue plasminogen activator, a thrombolytic drug for cerebral infarction; t-PA injection (Activacin; Kyowa Hakko Kirin Co., Ltd.)
  permeability of albumin (Evans blue-albumin: EBA) on loading of t-PA under ischemic conditions: increased the permeability
  permeability of fluorescein sodium on loading of t-PA under ischemic conditions: increased the permeability
